Data on 4 substances can be found in patent publication US5854025.

Test [1] addresses type 2 IGF receptor on H35 (rat hepatoma) cells (rat). Kind of test: displacement of 125I-IGF-II from H35 cells (type 2 IGF receptor); secreted preparation.
The target is the same in test [2]. Kind of test: displacement of 125I-IGF-II from H35 cells (type 2 IGF receptor); refolded preparation. A general note: In a radioligand displacement assay an active substance lowers the binding of a labelled ligand.
In test [3] the target is insulin receptor on H35 cells (rat) (UniProt P15127). Kind of test: displacement of 125I-insulin from H35 cells (insulin receptor).
Test [4] addresses type 2 IGF receptor on H35 (rat hepatoma) cells (rat). Kind of test: displacement of 125I-IGF-II from H35 cells (type 2 IGF receptor).

IGF-II (Q^37 Q^38) (ligand), sequence (chain): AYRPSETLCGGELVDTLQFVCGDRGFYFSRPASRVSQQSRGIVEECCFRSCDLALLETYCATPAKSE
recombinant IGF-II from a commercial supplier (Bachem), reference standard (ligand), sequence (chain): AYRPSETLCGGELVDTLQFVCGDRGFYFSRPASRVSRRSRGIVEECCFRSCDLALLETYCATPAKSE

The IC50 is the concentration that gives 50% inhibition. A higher IC50 goes with weaker potency. IGF-II (Q^37 Q^38) (ligand): the IC50 was found to be 0.03 µg/mL in test [1] and 0.06 µg/mL in test [2].
insulin (ligand): the IC50 in test [3] turned out to be 0.0048 µg/mL.
Take “recombinant IGF-II from a commercial supplier (Bachem), reference standard (ligand)”: in test [4], the IC50 was 0.018 µg/mL.
“wild-type IGF-II, refolded material (made by the HRP fusion route, pSD28, cyanogen bromide cleavage and refolding) (ligand)” displayed an IC50 in test [4] of 0.03 µg/mL.
